Measurements: article PMC4666394, “Human HLTF mediates postreplication repair by its HIRAN domain-dependent replication fork remodelling”

Tests used:
[1] = target: T1, HLTF HIRAN domain NN90,91AA (human, UniProt Q14527 56-168, N90A;N91A); assay: EMSA; Competition: 20 mM HEPES pH 7.5, 150 mM NaCl, 1 mM DTT, 0.1 ug/mL BSA, 0.2% NP40, 10% glycerol, room temperature 15 min; 6% native PAGE 0.5x Tris-borate without EDTA at 4 C; direct gel shift as in cited earlier work; conditions: protein: recombinant, tags: FLAG or GST-FLAG, label: 5' 32P
T1 sequence: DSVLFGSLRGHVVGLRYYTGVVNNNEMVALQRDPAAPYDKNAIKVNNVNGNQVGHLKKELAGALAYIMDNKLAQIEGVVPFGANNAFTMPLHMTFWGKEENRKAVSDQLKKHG

HLTF HIRAN domain WT [2] = target: T2, HLTF HIRAN domain WT (human, UniProt Q14527 56-168); assay: as above; conditions: protein: recombinant, tags: FLAG (GST-FLAG cleaved by PreScission) or GST-FLAG, label: 5' 32P
T2 sequence: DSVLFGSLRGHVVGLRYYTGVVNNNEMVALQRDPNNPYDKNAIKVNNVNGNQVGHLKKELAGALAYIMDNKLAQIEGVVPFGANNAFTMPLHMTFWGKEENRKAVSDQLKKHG

HLTF HIRAN domain WT [3] = target: T2, HLTF HIRAN domain WT; assay: EMSA; high affinity; Competition: 20 mM HEPES pH 7.5, 150 mM NaCl, 1 mM DTT, 0.1 ug/mL BSA, 0.2% NP40, 10% glycerol, room temperature 15 min; 6% native PAGE 0.5x Tris-borate without EDTA at 4 C; direct gel shift as in cited earlier work; conditions: protein: recombinant; tags: FLAG (GST-FLAG cleaved by PreScission) or GST-FLAG; label: 5' 32P; fork 1:4 2:3 3:4; two 30 bp daughter arms, 45 bp parental duplex, no ss region
GST-FLAG-HIRAN (WT) = target: T3, GST-FLAG-HIRAN (WT) (human, UniProt Q14527 56-168); assay: competition; 0-1 uM competitor against Cy5 fork; competes better than ssDNA; Competition: 20 mM HEPES pH 7.5, 150 mM NaCl, 1 mM DTT, 0.1 ug/mL BSA, 0.2% NP40, 10% glycerol, room temperature 15 min; 6% native PAGE 0.5x Tris-borate without EDTA at 4 C; direct gel shift as in cited earlier work; conditions: protein: recombinant; tags: GST-FLAG; label: 5' fluorescein on strand 4 (O3063); fork 1:4 2:3 3:4; two 30 bp daughter arms, 45 bp parental duplex, no ss region
T3 sequence: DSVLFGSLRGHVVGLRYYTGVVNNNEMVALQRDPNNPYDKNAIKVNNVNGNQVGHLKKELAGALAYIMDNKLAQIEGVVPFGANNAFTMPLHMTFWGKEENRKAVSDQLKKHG

[4] = 30 bp duplex, 5' overhang 45 nt on strand 2

B1: ds75-mer O1058/O1118 (dsDNA)
DNA 1: AGCTACCATGCCTGCCTCAAGAATTCGTAATATGCCTACACTGGAGTACCGGAGCATCGTCGTGACTGGGAAAAC
DNA 2: GTTTTCCCAGTCACGACGATGCTCCGGTACTCCAGTGTAGGCATATTACGAATTCTTGAGGCAGGCATGGTAGCT
B1: no binding ([1]; blunt); no binding (HLTF HIRAN domain WT [2]; blunt).

B2: replication fork O1054/O1056/O1058/O1118 (structured_DNA)
DNA 1: AGCTACCATGCCTGCCTCAAGAATTCGTAA
DNA 2: TTACGAATTCTTGAGGCAGGCATGGTAGCT
DNA 3: AGCTACCATGCCTGCCTCAAGAATTCGTAATATGCCTACACTGGAGTACCGGAGCATCGTCGTGACTGGGAAAAC
DNA 4: GTTTTCCCAGTCACGACGATGCTCCGGTACTCCAGTGTAGGCATATTACGAATTCTTGAGGCAGGCATGGTAGCT
B2: binds (HLTF HIRAN domain WT [3]); no binding ([1]; fork 1:4 2:3 3:4, two 30 bp daughter arms, 45 bp parental duplex, no ss region).

B3: partial duplex O1054/O1118 (mixed)
DNA 1: AGCTACCATGCCTGCCTCAAGAATTCGTAA
DNA 2: GTTTTCCCAGTCACGACGATGCTCCGGTACTCCAGTGTAGGCATATTACGAATTCTTGAGGCAGGCATGGTAGCT
B3: no binding [1, 4]; binds (HLTF HIRAN domain WT [2]; [4]).

B4: replication fork O1054/O1056/O1058/O3063 (structured_DNA)
DNA 1: AGCTACCATGCCTGCCTCAAGAATTCGTAA
DNA 2: TTACGAATTCTTGAGGCAGGCATGGTAGCT
DNA 3: AGCTACCATGCCTGCCTCAAGAATTCGTAATATGCCTACACTGGAGTACCGGAGCATCGTCGTGACTGGGAAAAC
DNA 4: GTTTTCCCAGTCACGACGATGCTCCGGTACTCCAGTGTAGGCATATTACGAATTCTTGAGGCAGGCATGGTAGCT
B4: binds (GST-FLAG-HIRAN (WT)).
